Laboratory results published in article doi:10.1101/2020.10.18.344481.

Experiments:
[1] = target: Thiomicrospira Cas2 (Thiomicrospira); assay: cryo-EM structure
[2] = target: Thiomicrospira Cas6-RT-Cas1 fusion protein (Thiomicrospira); assay: cryo-EM structure

stoichiometry N [1] | stoichiometry N [2] | Substance
2 | – | Thiomicrospira Cas2 (natural protein)
– | 2 | Thiomicrospira Cas6-RT-Cas1 fusion protein (enzyme)
